From paper PMC3510509, “Binding of two DNA molecules by type II topoisomerases for decatenation” (Nucleic Acids Research, 2012)

Biological target: T1, Mycobacterium smegmatis DNA gyrase subunit A (GyrA) (M. smegmatis, UniProt P48354 1-842)
T1 construct: DNA gyrase subunit A, Mycobacterium smegmatis; also called MsGyrA; M. smegmatis GyrA
Assay: cross-linking; glutaraldehyde; gyrase subunits mixed 1:1 in supercoiling reaction buffer, on ice 30 min, then cross-linked at 37°C for 30 min; products resolved on SDS-PAGE, silver stained
Conditions: both partners purified

B1: Mycobacterium smegmatis DNA gyrase subunit B (GyrB) (natural protein, M. smegmatis, UniProt A0QNE0 1-675, looked up)
chain: MAAQKNNAPKEYGADSITILEGLEAVRKRPGMYIGSTGERGLHHLIWEVVDNAVDEAMAGFATRVDVKIHADGSVEVRDDGRGIPVEMHATGMPTIDVVMTQLHAGGKFDGETYAVSGGLHGVGVSVVNALSTRLEATVLRDGYEWFQYYDRSVPGKLKQGGETKETGTTIRFWADPEIFETTDYNFETVARRLQEMAFLNKGLTIELTDERVTAEEVVDDVVKDTAEAPKTADEKAAEATGPSKVKHRVFHYPGGLVDYVKHINRTKTPIQQSIIDFDGKGPGHEVEIAMQWNAGYSESVHTFANTINTHEGGTHEEGFRAALTSVVNRYAKDKKLLKDKDPNLTGDDIREGLAAVISVKVAEPQFEGQTKTKLGNTEVKSFVQKICNEQLQHWFEANPAEAKTVVNKAVSSAQARIAARKARELVRRKSATDIGGLPGKLADCRSTDPSKSELYVVEGDSAGGSAKSGRDSMFQAILPLRGKIINVEKARIDRVLKNTEVQSIITALGTGIHDEFDISKLRYHKIVLMADADVDGQHISTLLLTLLFRFMKPLVENGHIFLAQPPLYKLKWQRSEPEFAYSDRERDGLLEAGRAAGKKINVDDGIQRYKGLGEMDAKELWETTMDPSVRVLRQVTLDDAAAADELFSILMGEDVEARRSFITRNAKDVRFLDV
notes: DNA gyrase subunit B, Mycobacterium smegmatis, wild type; also called MsGyrB; M. smegmatis GyrB
binding result: binds
